We go through 3 molecules from patent US20260232732A1 (FUNDACI INSTITUT DE RECERCA CONTRA LA LEUC MIA JOSEP …, published 2026).

Where no end group is shown, it is not given here. The star is where a group is joined. Biotin = O=C1N[C@H]2[C@H](CS[C@H]2CCCCC(=O)*)N1

The target of assay [1] is T1, naked peptide 1a MTPTDFTSPIPNMADDYGSESTSS (human).
T1 construct: also called region 1-24
T1 peptide: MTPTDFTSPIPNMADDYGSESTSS
The experiment in a line: ELISA, naked peptide coated. Here is the method: (§1) The peptides were synthesized naked or with a N-terminal Biotin modification with a purity of >98%. All four scFvs were verified by ELISA that can be detected with anti-His antibodies. ELISA was performed for scFv-peptide binding validation. Briefly, naked peptides were coated (50 μg/mL) in 0.58M carbonate-bicarbonate buffer pH9.5, 100 μL/well, 4° C. O/N. Then after blocking (3% BSA-PBS, 300 μL/well 37° C. 1.5 h) and washing (PBS+Tween-20 0.05% v/v (0.05% PBST), wells were incubated with each purified scFv antibody at concentration of 1 μg/mL in PBS at 37° C. 1 h. After washing (0.05% PBST), wells were incubated with secondary antibodies (goat anti-His IgG-HRP) in PBS, 37° C., 30 min. After washing, and incubation with TMB substrate, reactions were stopped with 2M HCl and reading was quantified at OD450.

The target of assay [2] is T2, naked peptide 1b MEDYVNFNFTDFYCEKNNVRQFAS (human).
T2 construct: also called region amino acids 25 to 48
T2 peptide: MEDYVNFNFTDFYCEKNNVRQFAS
Kind of assay: ELISA, naked peptide coated. Here is the method: as §1
For orientation: In an ELISA, binding on a coated surface is turned into a signal by an enzyme label.

Assay [3] addresses T3, biotin-peptide TSSMEDYVNF (human).
T3 peptide: Biotin-TSSMEDYVNF
Kind of assay: ELISA biotin-peptide; scFv 0.625 ug/mL; repI. Here is the method: as §1
(§2) ELISA with biotin-conjugated peptides (5 μg/mL) was performed very similar to described above with minor modifications.
(§3) A full curve ELISA was performed for each positive scFv/biotin-peptide pair in order to confirm previous results. Tables 15-17 show ELISA results of the dose-dependent full curve for each positive peptide with scFv “CCR9_HUM”, “Comp-2” and “Comp-3”, respectively.

For assay [4], the target named is T4, biotin-peptide SSMEDYVNFN (human).
T4 peptide: Biotin-SSMEDYVNFN
The experiment in a line: ELISA biotin-peptide; scFv 0.625 ug/mL; repI. Here is the method: as §1, §2, §3

Assay [5] has as its target T5, biotin-peptide MEDYVNFNFT (human).
T5 peptide: Biotin-MEDYVNFNFT
Kind of assay: ELISA biotin-peptide; scFv 0.625 ug/mL; repI. Here is the method:
as §1, §2, §3

Assay [6] concerns the target T6, biotin-peptide SMEDYVNFNF (human).
T6 peptide: Biotin-SMEDYVNFNF
Kind of assay: ELISA biotin-peptide; scFv 0.625 ug/mL; repI. Here is the method: as §1, §2, §3

Assay [7] addresses T3, biotin-peptide TSSMEDYVNF
The experiment in a line: ELISA biotin-peptide; scFv 1.25 ug/mL; repII. Here is the method:
as §1, §2, §3

Assay [8] deals with T4, biotin-peptide SSMEDYVNFN
Kind of assay: ELISA biotin-peptide; scFv 1.25 ug/mL; repII. Here is the method: as §1, §2, §3

Assay [9] deals with T5, biotin-peptide MEDYVNFNFT
The experiment in a line: ELISA biotin-peptide; scFv 1.25 ug/mL; repII. Here is the method:
as §1, §2, §3

In assay [10] the target is T6, biotin-peptide SMEDYVNFNF
Kind of assay: ELISA biotin-peptide; scFv 1.25 ug/mL; repII. Here is the method:
as §1, §2, §3

Assay [11] deals with T7, Peptide 1, non-conjugated (MADDYGSEST-C) (human).
T7 construct: With the extra C-terminal Cys
T7 peptide: MADDYGSESTC
Kind of assay: ELISA; Ab 0.25 ug/mL; repII. Here is the method: (§4) In brief, plates with each non-conjugated peptide (50 μg/mL) or BSA-conjugated peptide (5 μg/mL) were coated in 0.58M carbonate-bicarbonate buffer pH9.5, 100 μL/well, at 4° C. […] After washing, wells were incubated with the 3, 3′,5,5′-Tetramethylbenzidine (TMB) HRP substrate and reactions were stopped with 2M HCl and OD450 was recorded.

Assay [12] has as its target T8, antigen peptide-BSA (immunisation peptide #1 MADDYGSESTSSMEDYVNFNF-C conjugated to BSA) (human, extra C-terminal Cys conjugated to BSA).
T8 construct: also called Positive control antigen peptide-BSA; MADDY peptide
T8 peptide: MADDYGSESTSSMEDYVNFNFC
The experiment in a line: ELISA; Ab 0.25 ug/mL; repII. Here is the method: as §4

For assay [13], the target named is T9, BSA (negative control coating) (bovine, UniProt P02769 25-607).
T9 construct: also called Negative control BSA
T9 sequence (P02769 25-607 limits assumed): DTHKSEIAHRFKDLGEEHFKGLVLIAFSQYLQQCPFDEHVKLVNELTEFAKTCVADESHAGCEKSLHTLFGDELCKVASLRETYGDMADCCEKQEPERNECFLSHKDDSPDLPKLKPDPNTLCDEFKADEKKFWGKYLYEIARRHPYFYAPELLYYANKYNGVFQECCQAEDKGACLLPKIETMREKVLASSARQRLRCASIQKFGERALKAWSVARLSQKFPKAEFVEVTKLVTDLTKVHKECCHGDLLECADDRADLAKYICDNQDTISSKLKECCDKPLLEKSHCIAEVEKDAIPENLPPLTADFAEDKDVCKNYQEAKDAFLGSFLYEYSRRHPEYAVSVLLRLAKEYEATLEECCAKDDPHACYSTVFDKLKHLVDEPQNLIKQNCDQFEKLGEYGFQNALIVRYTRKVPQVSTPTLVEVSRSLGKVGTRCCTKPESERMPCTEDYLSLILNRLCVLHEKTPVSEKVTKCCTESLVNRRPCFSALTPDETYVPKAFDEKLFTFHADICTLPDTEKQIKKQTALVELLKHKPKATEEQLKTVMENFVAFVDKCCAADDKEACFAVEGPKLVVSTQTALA
The experiment in a line: ELISA; Ab 0.25 ug/mL; repII. Here is the method:
as §4

In assay [14] the target is T10, Peptide 3-BSA (SSMEDYVNFN-C conjugated to BSA) (human).
T10 peptide: SSMEDYVNFNC(BSA)
Kind of assay: ELISA; Ab 0.25 ug/mL; repII. Here is the method:
as §4

In assay [15] the target is T11, Peptide 3, non-conjugated (SSMEDYVNFN-C) (human).
T11 construct: With the extra C-terminal Cys
T11 peptide: SSMEDYVNFNC
Kind of assay: ELISA; Ab 0.25 ug/mL; repII. Here is the method:
as §4

Assay [16] deals with T12, Peptide 1-BSA (MADDYGSEST-C conjugated to BSA) (human).
T12 peptide: MADDYGSESTC(BSA)
The experiment in a line: ELISA; Ab 0.25 ug/mL; repII. Here is the method:
as §4

Assay [17] has as its target T13, Peptide 4, non-conjugated (SMEDYVNFNF-C) (human).
T13 construct: With the extra C-terminal Cys
T13 peptide: SMEDYVNFNFC
The experiment in a line: ELISA; Ab 0.25 ug/mL; repII. Here is the method:
as §4

For assay [18], the target named is T14, Peptide 2-BSA (GSESTSSMED-C conjugated to BSA) (human).
T14 peptide: GSESTSSMEDC(BSA)
The experiment in a line: ELISA; Ab 0.25 ug/mL; repII. Here is the method: as §4

Assay [19] has as its target T15, Peptide 2, non-conjugated (GSESTSSMED-C) (human).
T15 construct: With the extra C-terminal Cys
T15 peptide: GSESTSSMEDC
Kind of assay: ELISA; Ab 0.25 ug/mL; repII. Here is the method:
as §4

In assay [20] the target is T16, Peptide 4-BSA (SMEDYVNFNF-C conjugated to BSA) (human).
T16 peptide: SMEDYVNFNFC(BSA)
The experiment in a line: ELISA; Ab 0.25 ug/mL; repII. Here is the method: as §4

B1: Comparative antibody 1 (Comp-1) scFv, SEQ ID NO: 10 from WO2023/037125 A1, His-tagged (scFv)
scFv: QVQLKESGPGLVQPSQTLSLTCTVSGFSVASYDMHWVRLPPGKGLEWMGIIWANGNTHYNSGLKSRLSISRDTSKSQVFLKMNSLQTEDTAIYFCTRGGFAYWGQGTLVTVSSGGGGSGGGGSGGGGSGGGGSDVVMTQTPVSLSVSLGGQVSISCRSSQSLVHNNGNTYLSWYLQKPGQSPQLLIYKVSNRFSGVSDRFSGSGSGTDFTLKISRVEPDDLGVYYCGQGTQYPTFGGGTKLELKHHHHHH
As to B1, the binding result in assay [1] and in [2] was “no binding” in each case.

B2: CCR9_HUM2 scFv (humanized anti-CCR9 scFv, SEQ ID NO: 17 with C-terminal 6xHis tag) (scFv)
scFv: QVQLVQSGAEVKKPGASVKVSCTASGYSFTDYIIYWVKQAHGQSLEWMGYIDPNNYNTRYSQKFQGKVTITVDKSSTSAYMELNSLTSDDTAVYYCARDVYWGQGTTVTVSSGGGGSGGGGSGGGGSGGGGSDVVMTQTPLSLSVTPGQPASISCRSSQSLVHSNGKTYLQWYLQKPGQSPKLLIYKVSNRFSGVPDRFSGSGSGTDFTLKISRVEAEDVGVYFCAQSTHVWTFGGGTKVEIKRAHHHHHH
Take B2: the OD450 in [3] came to 0.78 OD; in [4] it was 1.73 OD; in assay [5], 1.53 OD; in assay [6], 1.71 OD; in assay [7], 1.23 OD; in assay [8], 1.77 OD. Besides, the OD450 was 1.49 OD in assay [9] and 1.72 OD in assay [10].

B3: anti-CCR9 antibody clone 115 (murine, from hybridoma #115) (antibody, V domains shown)
VH: QVQLKQSGPELVKPGTSVRVSCTASGYSFTDYIIYWVKQSHGRSLEWIGYIDPNNYNTRYSQKFKGKATLTVDKSSTSAFMHLNSLTSDDSAVYYCARDVYWGQGTTLTVSS
VL: DVVMTQTPLSLTVSLGDQASISCRSSQSLVHSNGKTYLQWYLQKPGQSPKLLIYKVSNRFSGVPDRFSGSGSGTDFTLKISRVEAEDLGVYFCAQSTHVWTFGGGTKLEIKR
notes: Mouse IgG1
On to B3, for which the OD450 in assay [11] was 0.02 OD; in assay [12], 2.42 OD; in assay [13], 0.02 OD; in assay [14] it was 2.05 OD; in assay [15], 1.8 OD; in [16] it was 0.02 OD. Also, the OD450 in [17] worked out at 2.24 OD; in [18], 0.02 OD; in assay [19], 0.01 OD; in assay [20], 2.53 OD.
